This note sets out measurements from PMC2910870.

Common to all, as to test: SPR
For orientation: Surface plasmon resonance follows binding to a sensor surface in real time, without labels.

For test [1], the target named is NL2Δ (rat neuroligin 2 cholinesterase-like region, without insert A) (rat).
In test [2] the target is NL2A (rat neuroligin 2 cholinesterase-like region, with insert A) (rat) (UniProt Q62888).
Test [3] addresses NL3Δ (rat neuroligin 3 cholinesterase-like region, without inserts A1 and A2) (rat).
Test [4] addresses NL1A (rat neuroligin 1 cholinesterase-like region, with insert A, without insert B) (rat).
The target of test [5] is NL3A1A2 (rat neuroligin 3 cholinesterase-like region, with inserts A1 and A2) (rat) (UniProt Q62889).
The target of test [6] is NL3A2 (rat neuroligin 3 cholinesterase-like region, with insert A2, without insert A1) (rat).
Test [7] deals with NL1Δ (rat neuroligin 1 cholinesterase-like region, without inserts A and B) (rat).
Test [8] concerns the target NL3A1 (rat neuroligin 3 cholinesterase-like region, with insert A1, without insert A2) (rat).
For test [9], the target named is NL1B (rat neuroligin 1 cholinesterase-like region, with insert B, without insert A) (rat).
The target of test [10] is NL1AB (rat neuroligin 1 cholinesterase-like region, with inserts A and B) (rat) (UniProt Q62765).

β-NRX1+4 (mouse β-neurexin 1 LNS domain, with splice insert 4), sequence (P0DI97 86-288): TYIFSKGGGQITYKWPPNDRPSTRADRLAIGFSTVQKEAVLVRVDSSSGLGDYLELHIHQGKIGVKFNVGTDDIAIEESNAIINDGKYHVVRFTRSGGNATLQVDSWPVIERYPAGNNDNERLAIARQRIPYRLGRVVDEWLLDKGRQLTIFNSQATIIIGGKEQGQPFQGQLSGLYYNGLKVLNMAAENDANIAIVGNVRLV
β-NRX2+4 (rat β-neurexin 2 LNS domain, with splice insert 4), sequence (Q63376 87-290): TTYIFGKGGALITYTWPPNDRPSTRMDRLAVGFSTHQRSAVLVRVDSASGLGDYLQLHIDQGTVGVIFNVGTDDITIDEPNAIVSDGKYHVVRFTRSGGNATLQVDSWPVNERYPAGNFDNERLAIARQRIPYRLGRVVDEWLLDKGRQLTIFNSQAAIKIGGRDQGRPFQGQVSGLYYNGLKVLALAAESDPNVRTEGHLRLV

With “β-NRX3Δ4 (mouse β-neurexin 3 LNS domain, lacking splice insert 4) (domain or fragment)”, the Kd in test [1] came to 0.418 µM; in test [2], 0.369 µM; in test [3] it was 10.1 µM; in test [4] it was 0.782 µM; in test [5], 10.9 µM; in test [6] it was 11.2 µM. In addition, the Kd in [7] came to 1.02 µM; in test [8], 6.26 µM.

Take “β-NRX1+4 (mouse β-neurexin 1 LNS domain, with splice insert 4) (from UniProt P0DI97 86-288) (domain or fragment)”: the Kd amounted to 3.52 µM in [1]; 2.75 µM in test [9]; 23.8 µM in test [3]; 2.1 µM in [4]; 21.9 µM in [6]; 1.54 µM in test [7]. The Kd in test [8] was found to be 12 µM.

Consider “β-NRX2+4 (rat β-neurexin 2 LNS domain, with splice insert 4) (from UniProt Q63376 87-290) (domain or fragment)”, for which the Kd was determined as 3.39 µM in test [1]; 5.48 µM in [9]; 56.8 µM in test [3]; 3.32 µM in test [4]; 42.2 µM in [6]; 3.77 µM in [7]. The Kd in [8] stood at 20.5 µM.

As for “β-NRX2Δ4 (rat β-neurexin 2 LNS domain, lacking splice insert 4) (domain or fragment)”, the Kd came out at 0.706 µM in [1]; 2.29 µM in test [10]; 2.21 µM in test [9]; 16.5 µM in test [3]; 1.47 µM in [4]; 15.3 µM in test [5]. Besides, the results for the Kd in test [7] and in [8] were 0.917 µM and 9.05 µM, respectively.

Turning to “β-NRX1Δ4 (mouse β-neurexin 1 LNS domain, lacking splice insert 4) (domain or fragment)”, the Kd in [1] stood at 0.964 µM; in test [10] it was 1.21 µM; in test [9], 1.16 µM; in test [3], 8.17 µM; in [4] it was 0.845 µM; in test [5], 6.57 µM. The results for the Kd in test [6], in test [7] and in test [8] were 7.15 µM, 0.828 µM and 7.45 µM, respectively.

Take “β-NRX3+4 (mouse β-neurexin 3 LNS domain, with splice insert 4) (domain or fragment)”: the Kd stood at 0.262 µM in [1]; 0.393 µM in test [10]; 0.365 µM in test [9]; 0.239 µM in test [2]; 9.73 µM in test [3]; 0.246 µM in test [4]. For the same substance, the Kd in test [5] worked out at 9.39 µM; in test [7], 0.332 µM; in [8], 4.32 µM.

One may read the Kd as the equilibrium constant for the complex coming apart.
